Assay results published in publication PMC10914744, “Key homeobox transcription factors regulate the development of the firefly’s adult light organ and bioluminescence”.

B1: ABD-B binding site mutation probe (dsDNA)
DNA 1: ATACATTAAAGTATCCGGCGGGAACCGGCAATCTGCCGGGATATATAAAAAACA
DNA 2: TGTTTTTTATATATCCCGGCAGATTGCCGGTTCCCGCCGGATACTTTAATGTAT
B2: biotin-WT AlLuc1 promoter probe (dsDNA)
DNA 1: ATACATTAAAGTATCTAATAAAAATTAATGGTTCATTAAGATATATAAAAAACA
DNA 2: TGTTTTTTATATATCTTAATGAACCATTAATTTTTATTAGATACTTTAATGTAT

Columns and labels:
AlABD-B [1] = biological target: T1, AlABD-B (Aquatica leii, UniProt A0AAN7SB49 90-481); assay: EMSA; poly(dI-dC); no significant complex detected; LightShift EMSA kit; 2.0 ug protein (stored in PBS, 10% glycerol), 0.2 pmol probe, 2 ug/uL poly(dI-dC), 60 min at room temperature, native 6% PAGE; binding buffer salt and pH not stated; conditions: protein: recombinant; tags: His (pET28a, Ni-NTA); blunt
T1 sequence (A0AAN7SB49 entry or part of it): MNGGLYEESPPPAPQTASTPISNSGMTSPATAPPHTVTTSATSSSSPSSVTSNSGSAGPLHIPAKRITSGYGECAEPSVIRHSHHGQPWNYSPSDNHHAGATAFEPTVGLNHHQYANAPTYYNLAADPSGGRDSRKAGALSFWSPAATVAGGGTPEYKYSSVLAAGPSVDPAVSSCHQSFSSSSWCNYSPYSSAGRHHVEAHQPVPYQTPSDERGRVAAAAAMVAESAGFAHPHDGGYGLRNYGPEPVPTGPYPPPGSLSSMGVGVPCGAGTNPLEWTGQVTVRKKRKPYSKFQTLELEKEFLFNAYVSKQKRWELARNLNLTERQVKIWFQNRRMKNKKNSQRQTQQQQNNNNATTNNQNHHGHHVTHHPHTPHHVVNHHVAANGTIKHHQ

AlABD-B [2] = biological target: T1, AlABD-B; assay: EMSA; poly(dI-dC); signal significantly reduced by unlabeled WT probe; LightShift EMSA kit; 2.0 ug protein (stored in PBS, 10% glycerol), 0.2 pmol probe, 2 ug/uL poly(dI-dC), 60 min at room temperature, native 6% PAGE; binding buffer salt and pH not stated; conditions: protein: recombinant; tags: His (pET28a, Ni-NTA); label: biotin; blunt

| Binder | binding result (AlABD-B [1]) | binding result (AlABD-B [2]) |
| --- | --- | --- |
| B1 | no binding |  |
| B2 |  | binds |
